Here are results for ten molecules from patent US20230287120A1 (ALLOGENE THERAPEUTICS, published 2023).

For assay [1], the target named is T1, Flag tagged recombinant DLL3 (Adipogen) (Homo sapiens (Human), UniProt Q9NYJ7 27-492).
T1 construct: Bought reagent; also called Flag-DLL3
T1 sequence: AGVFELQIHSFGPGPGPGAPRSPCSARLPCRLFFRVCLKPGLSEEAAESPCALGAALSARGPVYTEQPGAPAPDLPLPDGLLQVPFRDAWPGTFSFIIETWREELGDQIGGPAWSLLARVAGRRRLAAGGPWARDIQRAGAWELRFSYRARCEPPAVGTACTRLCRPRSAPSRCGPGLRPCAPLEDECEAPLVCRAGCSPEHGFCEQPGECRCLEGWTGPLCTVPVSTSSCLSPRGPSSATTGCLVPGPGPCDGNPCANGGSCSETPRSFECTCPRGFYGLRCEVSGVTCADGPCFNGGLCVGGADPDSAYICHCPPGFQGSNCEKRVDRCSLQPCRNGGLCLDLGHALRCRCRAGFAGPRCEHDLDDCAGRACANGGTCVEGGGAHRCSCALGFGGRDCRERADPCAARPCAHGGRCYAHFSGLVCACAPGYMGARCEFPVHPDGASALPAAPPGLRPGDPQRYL
Put plainly: flow cytometry, percent of T cells that recognise recombinant DLL3, Donor 503. For orientation: Flow cytometry measures light scatter and fluorescence of single cells or particles in a stream.
Experimental: (§1) To determine the percentage of T cells that were successfully transduced with DLL3 CAR, T cells were first incubated with 1 ug/ml Flag tagged recombinant DLL3 (Adipogen) in PBS+1% BSA for 20 minutes at 4 C.

Assay [2] concerns the target T1, Flag tagged recombinant DLL3 (Adipogen). Put plainly: flow cytometry, percent of T cells that recognise recombinant DLL3, Donor 772.
Experimental: as §1

B1: 2404.8E11 (other)
CAR: QIQLQQSGPGLVKPSQTLSLTCAISGDSVSSNSAVWNWIRQSPSRGLEWLGRTYYRSKWYNDYAVSVKSRITIKPDTAKNQFSLQLNSVTPEDTAVYYFTRGGIVGAPDAFDIWGQGTMVTVSSGGGGSGGGGSGGGGSGGGGSQSVLTQPPSASGTPGQRVTISCSGSSSNIGSDPINWYQQVPGTAPKLLIYSNNQRPSGVPDRFSGSKSGTSASLAISGLQSEDEADYYCAAWDDSLNGYVFGTGTKVTVLTTTPAPRPPTPAPTIASQPLSLRPEACRPAAGGAVHTRGLDFACDIYIWAPLAGTCGVLLLSLVITKRGRKKLLYIFKQPFMRPVQTTQEEDGCSCRFPEEEEGGCELRVKFSRSADAPAYQQGQNQLYNELNLGRREEYDVLDKRRGRDPEMGGKPRRKNPQEGLYNELQKDKMAEAYSEIGMKGERRRGKGHDGLYQGLSTATKDTYDALHMQALPPR
notes: also called anti-DLL3 CAR with 2404.8E11 scFv, on primary T cells
For B1, in assay [1], the Transduction efficiency was 58.9%.

B2: 4E6 (other)
CAR: QVQLQESGPGLVKPSETLSLTCTVSSDSISSYYWSWIRQPPGKGLEWISYIYYSGISNYNPSLKSRVSISVDTSKNQFSLRLSSVTAADTAVYYCARISVAGFFFDNWGQGTLVTVSSGGGGSGGGGSGGGGSGGGGSEIMLTQSPDTLSLSPGERATLSCRASQSVSSSYLAWYQQKPGQAPRLLIYGASSRAAGVPDRFSGSGSGTDFTLTISRLAPEDFVVYYCQQYGISPLTFGGGTKVEIKTTTPAPRPPTPAPTIASQPLSLRPEACRPAAGGAVHTRGLDFACDIYIWAPLAGTCGVLLLSLVITKRGRKKLLYIFKQPFMRPVQTTQEEDGCSCRFPEEEEGGCELRVKFSRSADAPAYQQGQNQLYNELNLGRREEYDVLDKRRGRDPEMGGKPRRKNPQEGLYNELQKDKMAEAYSEIGMKGERRRGKGHDGLYQGLSTATKDTYDALHMQALPPR
notes: also called anti-DLL3 CAR with 4E6 scFv, on primary T cells
For B2, the Transduction efficiency is 37.8% in assay [1] and 24.8% in assay [2].

B3: 10E12 (other)
CAR: QVQLQESGPGLVKPSETLSLTCTVSGVSISSYYWSWIRQPPGKGLEWIAYIYYSGNTNYSPSLKSRVTISVDTSKDQLSLKLSSVTAADTAVYYCTRGGSGTIDVFDIWGQGTMVAVSSGGGGSGGGGSGGGGSGGGGSQSVLTQPPSVSAAPGQKVTISCSGSSSNIGNNYVSWYQQLPGTAPKLLIYDNNKRPSGIPDRFSGSKSGTSATLGITGLQTGDEADYYCETWDSSLSAVVFGGGTKLTVLTTTPAPRPPTPAPTIASQPLSLRPEACRPAAGGAVHTRGLDFACDIYIWAPLAGTCGVLLLSLVITKRGRKKLLYIFKQPFMRPVQTTQEEDGCSCRFPEEEEGGCELRVKFSRSADAPAYQQGQNQLYNELNLGRREEYDVLDKRRGRDPEMGGKPRRKNPQEGLYNELQKDKMAEAYSEIGMKGERRRGKGHDGLYQGLSTATKDTYDALHMQALPPR
notes: also called anti-DLL3 CAR with 10E12 scFv, on primary T cells
For the molecule B3, in assay [2], the Transduction efficiency is 0.98%.

B4: 3G6 - L1 (other)
CAR: QVPLVQSGAEVKKPGSSVKVSCKASGGTFSTYSISWVRQAPGQGLEWMGGIIPIFGTTNYAQKFQGRVTITADKSTSTAYMELSSLRSEDTAVYYCARDGEGSYYYYYGMDVWGQGTTVTVSSGGGGSGGGGSGGGGSGGGGSQSVLTQPPSVSAAPGQKVTISCSGSSSNIGNNYVSWYQQLPGTAPKLLIYDNNKRPSGIPDRFFGSKFGTSATLGITGLQTGDEADYYCGTWDSSLSAVVFGGGTKLTVLTTTPAPRPPTPAPTIASQPLSLRPEACRPAAGGAVHTRGLDFACDIYIWAPLAGTCGVLLLSLVITKRGRKKLLYIFKQPFMRPVQTTQEEDGCSCRFPEEEEGGCELRVKFSRSADAPAYQQGQNQLYNELNLGRREEYDVLDKRRGRDPEMGGKPRRKNPQEGLYNELQKDKMAEAYSEIGMKGERRRGKGHDGLYQGLSTATKDTYDALHMQALPPR
notes: also called anti-DLL3 CAR with 3G6-L1 scFv, on primary T cells
As to B4, the Transduction efficiency in assay [1] is 35%; in assay [2], 14.2%.

B5: 3C3 (other)
CAR: QVQLVQSGAEVKRPGASVKVSCKASGYTFTSYYIHWVRQAPGQGLEWMGVIVPSGGSISYAQKFQGRVTMTRDTSTNIVYMELSSLRSEDTAVYYCARDRYYGDYYYGLDVWGQGTTVTVSSGGGGSGGGGSGGGGSGGGGSDIQMTQSPSSLSASVGDRVTITCRASQGINNFLAWFQQKPGKAPKSLIYAASSLQSGVPSKFSGSGSGTDFTLTIRSLQPEDFATYYCQHYNSYPITFGQGTRLEIKTTTPAPRPPTPAPTIASQPLSLRPEACRPAAGGAVHTRGLDFACDIYIWAPLAGTCGVLLLSLVITKRGRKKLLYIFKQPFMRPVQTTQEEDGCSCRFPEEEEGGCELRVKFSRSADAPAYQQGQNQLYNELNLGRREEYDVLDKRRGRDPEMGGKPRRKNPQEGLYNELQKDKMAEAYSEIGMKGERRRGKGHDGLYQGLSTATKDTYDALHMQALPPR
notes: also called anti-DLL3 CAR with 3C3 scFv, on primary T cells
With B5, the Transduction efficiency in assay [2] was 0.14%.

B6: 3G6 - L2 (other)
CAR: QVPLVQSGAEVKKPGSSVKVSCKASGGTFSTYSISWVRQAPGQGLEWMGGIIPIFGTTNYAQKFQGRVTITADKSTSTAYMELSSLRSEDTAVYYCARDGEGSYYYYYGMDVWGQGTTVTVSSGGGGSGGGGSGGGGSGGGGSQSVLTQPPSASGTPGQRVTISCSGSSSNIGSNYVYWYQQLPGTAPKLLIYSNNQRPSGVPDRFSGSKSGTSASLAISGLRSEDEADYYCAAWDDSLSGWVFGGGTKLTVLTTTPAPRPPTPAPTIASQPLSLRPEACRPAAGGAVHTRGLDFACDIYIWAPLAGTCGVLLLSLVITKRGRKKLLYIFKQPFMRPVQTTQEEDGCSCRFPEEEEGGCELRVKFSRSADAPAYQQGQNQLYNELNLGRREEYDVLDKRRGRDPEMGGKPRRKNPQEGLYNELQKDKMAEAYSEIGMKGERRRGKGHDGLYQGLSTATKDTYDALHMQALPPR
notes: also called anti-DLL3 CAR with 3G6-L2 scFv, on primary T cells
On to B6, for which the Transduction efficiency in assay [1] came out at 33.5%; in assay [2], 16.9%.

B7: 6F8 (other)
CAR: QVQLVQSGAEVKKPGSSVKVSCKASGGTFTNYCISWVRQAPGQGLEWMGGIIPIFGTTNYAQTFQGRVTITADKSTSTAYMELSSLRSEDTAVYYCARDNGDRYYYDMDVWGQGTTVTVSSGGGGSGGGGSGGGGSGGGGSQSVLTQPPSVSAAPGQKVTISCSGSSSNIGNNYVSWYQQLPGTAPKLLIYDNNKRPSGIPDRFSGSKSGTSATLGITGLQTGDEADYYCGTWDSSLSAVVFGGGTKLTVLTTTPAPRPPTPAPTIASQPLSLRPEACRPAAGGAVHTRGLDFACDIYIWAPLAGTCGVLLLSLVITKRGRKKLLYIFKQPFMRPVQTTQEEDGCSCRFPEEEEGGCELRVKFSRSADAPAYQQGQNQLYNELNLGRREEYDVLDKRRGRDPEMGGKPRRKNPQEGLYNELQKDKMAEAYSEIGMKGERRRGKGHDGLYQGLSTATKDTYDALHMQALPPR
notes: also called anti-DLL3 CAR with 6F8 scFv, on primary T cells
On to B7, for which the Transduction efficiency amounted to 59.4% in assay [1] and 26.7% in assay [2].

B8: 11F4 (other)
CAR: QVHLQESGPGLVKPSETLSLTCTVSGGSISHYYWTWIRQPPGKGLEWIGYIYYSGITNFSPSLKSRVSISVDSSKNQFSLNLNSVTAADTAVYYCAGISLAGFYFDYWVQGTLVTVSSGGGGSGGGGSGGGGSGGGGSEIVLTQSPGTLSLSPGERATLSCRASQSVSRSYLAWYQQKPGQAPRLLIYGASSRATGVPDRFSGSGSGTDFTLTISRLEPEDFAVFYCQQYSISPLTFGGGTKVEIKTTTPAPRPPTPAPTIASQPLSLRPEACRPAAGGAVHTRGLDFACDIYIWAPLAGTCGVLLLSLVITKRGRKKLLYIFKQPFMRPVQTTQEEDGCSCRFPEEEEGGCELRVKFSRSADAPAYQQGQNQLYNELNLGRREEYDVLDKRRGRDPEMGGKPRRKNPQEGLYNELQKDKMAEAYSEIGMKGERRRGKGHDGLYQGLSTATKDTYDALHMQALPPR
notes: also called anti-DLL3 CAR with 11F4 scFv, on primary T cells
B8: the Transduction efficiency in assay [2] was determined as 0.43%.

B9: 3E10 (other)
CAR: QVQLQESGPGLVKPSETLSLTCNVSDGSISSYYWTWIRQPPGKGLDWIGYIFYSGTTNYNPSLKSRVTISLDTSKNQFSLKLTSMTAADTAVYYCARISEKSFYFDYWGQGTLVTVSSGGGGSGGGGSGGGGSGGGGSQSVLTQPPSASGTPGQRVTISCSGSSSNIGSNYVYWYQQLPGTAPKLLIYSNNQRPSGVPDRFSGSKSGTSASLAISGLRSEDEADYYCAPWDDSLSGRVFGGGTKLTVLTTTPAPRPPTPAPTIASQPLSLRPEACRPAAGGAVHTRGLDFACDIYIWAPLAGTCGVLLLSLVITKRGRKKLLYIFKQPFMRPVQTTQEEDGCSCRFPEEEEGGCELRVKFSRSADAPAYQQGQNQLYNELNLGRREEYDVLDKRRGRDPEMGGKPRRKNPQEGLYNELQKDKMAEAYSEIGMKGERRRGKGHDGLYQGLSTATKDTYDALHMQALPPR
notes: also called anti-DLL3 CAR with 3E10 scFv, on primary T cells
Consider B9, for which, in assay [2], the Transduction efficiency stood at 0.43%.

B10: 3F9-L (other)
CAR: QVQLQQSGPGLVKPSQTLSLACAISGDSVSSNSAIWNWIRQSPSRGLEWLGGTYYRSMWYNDYAVSVKSRITINPDTSKNQLSLQLNSVTPEDTAVYYCSRGGIVGVPDAFDIWGQGTMVTVSSGGGGSGGGGSGGGGSGGGGSQSVLTQPPSASGTPGQRVTISCSGSSSNIGSNTANWYQQLPGTAPRLLIYRNNQRPSGVPDRFSGSKSGTSASLAISGLQSEDEADYYCAAWDDSLNGYVFGTGTKVTVLTTTPAPRPPTPAPTIASQPLSLRPEACRPAAGGAVHTRGLDFACDIYIWAPLAGTCGVLLLSLVITKRGRKKLLYIFKQPFMRPVQTTQEEDGCSCRFPEEEEGGCELRVKFSRSADAPAYQQGQNQLYNELNLGRREEYDVLDKRRGRDPEMGGKPRRKNPQEGLYNELQKDKMAEAYSEIGMKGERRRGKGHDGLYQGLSTATKDTYDALHMQALPPR
notes: also called anti-DLL3 CAR with 3F9-L scFv, on primary T cells
As to B10, the Transduction efficiency is 19.5% in assay [1] and 13.8% in assay [2].
